pKd: −log10 of the molar value. Read-outs that look alike come from different tables or passages of the source.
Tests used:
[1] = target: Human CD44 extracellular domain (human) (UniProt P16070); assay: ITC
[2] = target: Mouse CD44 extracellular domain (mouse) (UniProt P15379); assay: ITC
[3] = target: Biotinylated avi-tagged human TβRI (human) (UniProt P36897); assay: SPR
[4] = target: Biotinylated avi-tagged human TβRI (human) (UniProt P36897); assay: SPR; remark: listed apart in the source
[5] = target: Biotinylated avi-tagged human TβRII (human) (UniProt P37173); assay: SPR
UniProt P37173, sequence (P37173 23-166): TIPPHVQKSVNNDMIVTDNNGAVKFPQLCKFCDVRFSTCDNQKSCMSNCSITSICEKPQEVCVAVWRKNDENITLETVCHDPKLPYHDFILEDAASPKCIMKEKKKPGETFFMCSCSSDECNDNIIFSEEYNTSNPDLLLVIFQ

UniProt P36897, sequence (P36897 34-126): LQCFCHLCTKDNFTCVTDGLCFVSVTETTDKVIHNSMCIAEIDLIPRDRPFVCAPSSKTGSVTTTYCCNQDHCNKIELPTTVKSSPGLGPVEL
UniProt P15379, sequence (P15379 23-685): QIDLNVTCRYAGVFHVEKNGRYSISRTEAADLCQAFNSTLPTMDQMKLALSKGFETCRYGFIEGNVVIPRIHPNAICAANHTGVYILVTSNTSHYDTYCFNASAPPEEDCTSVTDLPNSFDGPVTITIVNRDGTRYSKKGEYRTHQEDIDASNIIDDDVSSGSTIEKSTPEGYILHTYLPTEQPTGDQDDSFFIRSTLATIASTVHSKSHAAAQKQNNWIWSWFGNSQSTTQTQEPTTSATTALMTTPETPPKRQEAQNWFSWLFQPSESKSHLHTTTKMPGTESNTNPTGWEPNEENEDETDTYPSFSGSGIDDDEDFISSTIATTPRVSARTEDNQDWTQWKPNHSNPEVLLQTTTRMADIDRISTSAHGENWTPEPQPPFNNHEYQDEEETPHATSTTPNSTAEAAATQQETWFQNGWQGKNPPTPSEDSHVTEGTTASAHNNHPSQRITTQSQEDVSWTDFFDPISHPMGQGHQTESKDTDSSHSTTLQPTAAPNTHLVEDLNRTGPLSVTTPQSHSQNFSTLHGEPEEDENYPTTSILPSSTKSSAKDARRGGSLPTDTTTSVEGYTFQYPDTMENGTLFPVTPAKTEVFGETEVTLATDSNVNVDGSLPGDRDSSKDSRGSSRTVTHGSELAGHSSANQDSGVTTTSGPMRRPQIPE
UniProt P16070, sequence (P16070 21-649): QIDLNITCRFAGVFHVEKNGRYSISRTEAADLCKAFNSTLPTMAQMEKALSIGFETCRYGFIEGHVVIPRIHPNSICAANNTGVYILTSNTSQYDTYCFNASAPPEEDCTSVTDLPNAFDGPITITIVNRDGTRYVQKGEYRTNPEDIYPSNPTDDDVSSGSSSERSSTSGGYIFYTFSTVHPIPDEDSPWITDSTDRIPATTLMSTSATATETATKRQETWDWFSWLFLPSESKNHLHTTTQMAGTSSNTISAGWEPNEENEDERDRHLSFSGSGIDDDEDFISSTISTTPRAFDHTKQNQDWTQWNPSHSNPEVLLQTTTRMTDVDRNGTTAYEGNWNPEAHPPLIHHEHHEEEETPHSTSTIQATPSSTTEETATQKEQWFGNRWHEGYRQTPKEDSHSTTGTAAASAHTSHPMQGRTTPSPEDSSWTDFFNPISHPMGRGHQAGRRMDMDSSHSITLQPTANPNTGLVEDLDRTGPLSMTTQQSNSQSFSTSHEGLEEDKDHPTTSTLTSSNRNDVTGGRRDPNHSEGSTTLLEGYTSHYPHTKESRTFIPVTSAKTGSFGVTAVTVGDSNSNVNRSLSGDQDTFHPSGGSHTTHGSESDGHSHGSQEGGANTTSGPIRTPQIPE

pKd [3] | pKd [4] | pKd [5] | Substance | pKd [1] | pKd [2]
– | – | – | TGM1 D4-5 fragment (domain or fragment) | 6.85 | 7.21
7.15 | – | – | TGM1 full-length recombinant protein (natural protein) | – | –
– | – | – | TGM4 D4-5 recombinant protein (domain or fragment) | 7.25 | 7.70
8.49 | 8.30 to 8.52 | 3.94 | TGM4 full-length recombinant protein (natural protein) | – | –

Source: PMC10680678
